Entries after “also recorded” stand apart in the source; their conditions may differ.
B1: AgGPPS1: recombinant geranyl diphosphate synthase from Grand fir (Abies grandis), truncated, His6-tagged, SEQ ID NO:16 (protein)
chain: MFDFKEYLHSKAISVNEALERAVPLRYPEKIHEAMRYSLLAGGKRIRPILTIAACELVGGSEELAMPTACAMEMIHTMSLIHDDLPSMDNDDLRRGKLTNHKVFGEGTAVLAGDALLSFAFEHIAVSTRKTVASHRVLRVVSELGKAIGSQGVAGGQVADITSEGDPSVGLETLEWIHIHKTAVLLECAVVSGAIIGGASENEIERTGRYARCVGLLFQVVDDILDVTRSSEELGKTAGKDLVSDKATYPKLMGLEKAKEFADELLDRAKEELSCFNPAKAAPLLGLADYIALRQNLEHHHHHH
modifications: His6 tag; Abies Grandis
B2: AgGPPS2: recombinant geranyl diphosphate synthase from Grand fir (Abies grandis), truncated, His6-tagged, SEQ ID NO:12 (protein)
chain: MFDFNKYMDSKAMTVNEALNKAIPLRYPQKIYESMRYSLLAGGKRVRPVLCIAACELVGGTEELAIPTACAIEMIHTMSLMHDDLPCIDNDDLRRGKPTNHKIFGEDTAVTAGNALHSYAFEHIAVSTSKTVGADRILRMVSELGRATGSEGVMGGQMVDIASEGDPSIDLQTLEWIHIHKTAMLLECSVVCGAIIGGASEIVIERARRYARCVGLLFQVVDDILDVTKSSDELGKTAGKDLISDKATYPKLMGLEKAKEFSDELLNRAKGELSCFDPVKAAPLLGLADYVAFRQNLEHHHHHH
modifications: His6 tag; Abies Grandis
B3: GGPPS: recombinant geranylgeranyl diphosphate synthase from grand fir, truncated, His6-tagged, SEQ ID NO:26 (protein)
chain: MFDFKEYLRSKAMAVNEALDRAVPLRYPERIHEAMRYSLLAGGKRVRPVLCISACELVGGTEEVAMPTACAMEMIHTMSLIHDDLPCMDNDDFRRGKPTNHKVFGEGTAILAGDALLSFAFEHIAVSTSKSVGTDRILRVVSELGRTIGSQGLVGGQVADITSEGDASVDLDTLEWIHIHKTAVLLECSVMCGAIISGASDNEIERIQRYARSVGLLFQVVDDILDVTKSSKELGKTAGKDLISDKATYPKLMGLEKAKQFASDLLIRAKEDLSCFDPMKAAPLLGLADYIAFRQNLEHHHHHH
modifications: His6 tag; Abies Grandis
B4: AgGPPS3: recombinant geranyl diphosphate synthase from Grand fir (Abies grandis), truncated, His6-tagged, SEQ ID NO:20 (protein)
chain: MFDFNKYMLSKAMAVTEALDKAIPHSYPQKIHESMRYSLLAGGKRVRPVLCIAACELVGGREELAMPTACAMEMIHTMSLIHDDLPCMDNDDLRRGKPTNHKVFGQDTALLAGDALHAFAFEHIVAFTSKSVGSDGILRAVTELARATGPQGIMGGQIVDIASERDAFVDLQTLEWIHIHKTAVLFECATVCGAIIGGASGDEIERIRRFARYLGLLFQVVDDILDVTKSSEDLGKTAGKDLVSDKATYPKLMGLEKAKGFSLELLNKAKEELSCFDPMKAAPLFGLADYMALRQNLEHHHHHH
modifications: His6 tag; Abies Grandis

Key:
[1] = tested on: recombinant GPP synthases from grand fir; assay: Kinetic evaluation, standard prenyltransferase assay with purified recombinant His6-tagged GPP synthases; format: biochemical, Abies grandis
Description: Molecular weight determination and kinetic evaluation. The molecular weight of GPP synthase was determined by gel filtration chromatography on a calibrated XK 16/70 column of Superdex 200 (Amersham Biosciences) as previously described (C. Burke and R. Croteau, J. Biol. Chem. 277:3141-3149, 2002). For kinetic evaluation, the standard prenyltransferase assay was performed (C. Burke and R. Croteau, J. Biol. Chem. 277:3141-3149, 2002) but the reaction was terminated after 4 min. to ensure linearity in the rate measurements. For preparative incubations, the reaction time was extended to 8 min., and all assays contained from 0.25 to 1.0 μg of purified protein.
Kinetic characterization of the GPP synthases (SEQ ID NOS:12, 16, and 20). To compare substrate binding behavior and turnover rates of these grand fir GPP synthases (SEQ ID NOS:12, 16, and 20) to those of the Mentha synthase, kinetic constants were determined (Table 1).

[2] = tested on: presumptive prenyltransferases (GPP synthases and GGPP synthase) from grand fir; assay: Product determination and co-substrate selectivity assay ([4-14C]IPP plus allylic co-substrate, MgCl2; radio-GC of hydrolysed products); format: biochemical, Abies grandis; settings: for product formed: radio-GC; for rate with GPP as allylic co-substrate in the production of FPP, relative to the rate with DMAPP: standard assay conditions
Description: Protein purification and product determination. The affinity-based purification procedure for His-tagged proteins has been described previously, as has the standard purification protocol for the corresponding non-tagged proteins (C. Burke and R. Croteau, J. Biol. Chem.277:3141-3149, 2002). The partial purification procedure for the native GPP synthase from A. grandis has also been reported previously (D. Tholl et al., Arch. Biochem. Biophys. 386:233-242, 2001). Procedures for polyclonal antibody preparation were as described previously (C. C. Burke et al., Proc. Natl. Acad. Sci. USA 96:13062-13067, 1999), in this case using the SDS-PAGE purified AgGPPS3 protein (SEQ ID NO:7) as antigen. The assay procedures and methods for product analysis were similar to those previously described (C. Burke and R. Croteau, J. Biol. Chem. 277:3141-3149, 2002), except that for radio-GC a Raga (Raytest) radio-detector connected in-line to a Series 600 (Gow-Mac) chromatograph was employed with a 5% phenyl polysiloxane (ZB-5; Phenomenex) capillary column under hydrogen gas flow (70° C. for 5 min. followed by an 8° C. per min. ramp to 240° C. for 5 min).
As might be expected based on prior experience, the full-length (preprotein) versions of these enzymes (SEQ ID NOS:3, 5, 7 and 22) were not efficiently expressed in soluble form and the bulk of the protein generated was in inclusion bodies. However, the truncated versions of these enzymes with the appended C-terminal His6-tag (SEQ ID NOS:12, 16, 20 and 26) readily afforded soluble protein that was affinity purified to >90% in amounts up to 6 mg/L. To define the function of these presumptive prenyltransferases, assays were conducted with the purified proteins (SEQ ID NOS:12, 16, 20 and 26) using [4-^14C]IPP and DMAPP as co-substrates and MgCl2 as cofactor. The resulting products were enzymatically hydrolyzed to the corresponding alcohols and analyzed by radio-GC. […] His-tagged AgGPPS1 (SEQ ID NO:16) and AgGPPS3 (SEQ ID NO:20) were able to accept GPP as the allylic co-substrate (110% the rate with DMAPP under standard assay conditions) in the production of FPP, and His-tagged AgGPPS3 (SEQ ID NO:20) could also efficiently utilize FPP as allylic co-substrate in the formation of GGPP (at about 50% the rate with DMAPP as co-substrate).

[3] = [4-14C]IPP and DMAPP as co-substrates, MgCl2 as cofactor

| Molecule | KM(DMAPP) compared with the Mentha enzyme [1] | turnover rate compared with AgGPPS3 [1] | product formed [2, 3] | rate with GPP as allylic co-substrate in the production of FPP, relative to the rate with DMAPP [2] [%] | turnover rate compared with the heterotetrameric Mentha GPP synthase [1] | allylic co-substrate utilised [2] | rate with FPP as allylic co-substrate in the formation of GGPP, relative to the rate with DMAPP [2] | farnesyl diphosphate produced [2, 3] |
| --- | --- | --- | --- | --- | --- | --- | --- | --- |
| B1 | two-fold higher | four fold higher | geranyl diphosphate as the major product | 110 | – | – | – | – |
| B2 | – | four fold higher | geranyl diphosphate as the major product; also recorded: only GPP | – | three-fold lower | only DMAPP | – | – |
| B3 | – | – | predominately geranylgeranyl diphosphate as product with trace amounts of geranyl diphosphate | – | – | – | – | – |
| B4 | – | – | geranyl diphosphate as the major product | 110 | – | – | about 50% | about 30% |
